Results as given in publication PMC10999833 (Molecular Biology and Evolution, 2024).
Values joined by “and” are separate entries in the source; they are usually repeats but may differ in a detail not shown here. Equal entries are not always repeated.

Molecular target: the molecule itself
Test: SEC-MALS

B1: ancestor MBP-His6-J^981–1132 (wild-type bacteriophage λ J, C-terminal 152 amino acids, MBP-tagged) (domain or fragment, UniProt P03749 981-1132, looked up)
chain: NCTINGTLRAEKIVGDIVKAASAAFPRQRESSVDWPSGTRTVTVTDDHPFDRQIVVLPLTFRGSKRTVSGRTTYSMCYLKVLMNGAVIYDGAANEAVQVFSRIVDMPAGRGNVILTFTLTSTRHSADIPPYTFASDVQVMVIKKQALGISVV
In the case of B1, the “stoichiometry N” value is reported as 3 and 2.
